According to paper PMC12780214 (NPJ Vaccines, 2025):

T1: NiVM G head domain (residues 176-602) (Nipah virus Malaysia (NiVM), UniProt Q9IH62 176-602)
T1 sequence: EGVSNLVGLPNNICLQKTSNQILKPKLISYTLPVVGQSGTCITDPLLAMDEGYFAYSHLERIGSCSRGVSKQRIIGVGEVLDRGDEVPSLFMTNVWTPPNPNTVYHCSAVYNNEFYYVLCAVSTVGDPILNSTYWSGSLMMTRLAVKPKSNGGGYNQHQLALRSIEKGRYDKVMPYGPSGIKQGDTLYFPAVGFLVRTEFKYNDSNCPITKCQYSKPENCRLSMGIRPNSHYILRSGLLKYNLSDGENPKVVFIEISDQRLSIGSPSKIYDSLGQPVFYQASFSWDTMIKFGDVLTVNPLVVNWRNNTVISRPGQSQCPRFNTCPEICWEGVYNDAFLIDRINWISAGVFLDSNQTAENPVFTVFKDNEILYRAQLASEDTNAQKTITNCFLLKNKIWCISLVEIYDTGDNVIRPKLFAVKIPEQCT

B1: S1E2 mAb (IgG) (antibody, V domains shown)
VH: QMQLQESGPGLVKPSQSLSLTCSVTGYSITSGYYWNWIRQFSGNKLEWMGYINHDGSKNYNPSLKNRISITRDTSKNQFFLKLNSVTTEDTATYYCARDYGSYYYPMDYWGQGTSVTVSS
VL: EIVLTQSPPIMSASPGEKVTITCSASSSVTFMHWFQQKPGTSPKLWIFSTSNLASGVPARFSGSGSGTSYSLTISRMEAEDAATYYCQQRSSYPFTFGSGTKLEIK
B2: S1E2 Fab (Fab, V domains shown)
VH: B1 VH
VL: B1 VL
B3: LN1F9 Fab (Fab, V domains shown)
VH: EVKLVESGGGLVKPGGSLKLSCAASGFSFRNYAMSWVRQSPEKRLEWVAEVSSGGGYTYYPDTVTGRFTISRDNAKNILYLEMSSLRSEDTAMYYCTRDPDSSGYLAWFAYWGQGTLVTVSA
VL: DILLTQSPASLSASVGETVTITCRASENINSYLAWYQQKQGKSPQLLVYNAKTLAEGVPSRFSGSGSDTQFSLKINTLQPEDFGTYYCQHHSGTPYTFGGGTKLEIK
B4: LN1F9 mAb (IgG) (antibody, V domains shown)
VH: B3 VH
VL: B3 VL
B5: S2B10 mAb (IgG) (antibody, V domains shown)
VH: QMQLQESGPGLVKPSQSLSLTCTVTGYSITSDYAWNWIRQFPRNKLEWMGFITYSGSTSYNPSLKSRISLTRDTSKNQFFLQLSSVTTEDTATYYCARSGANWDWFAYWGQGTLVTVSA
VL: DIQMTQSPASLAVSLGQRATISCRASESVDNYGNSFMHWYQQKPGQPPKLLIYRASKLESGIPARFSGSGSRTDFTLTINPVEADDVATYHCQQSNEDPWTFGGGTKLEIK
B6: S2B10 Fab (Fab, V domains shown)
VH: B5 VH
VL: B5 VL
B7: human ephrin-B2 (residues 27-167) (receptor)
chain: SIVLEPIYWNSSNSKFLPGQGLVLYPQIGDKLDIICPKVDSKTVGQYEYYKVYMVDKDQADRCTIKKENTPLLNCAKPDQDIKFTIKFQEFSPNLWGLEFQKNKDYYIISTSNGSLEGLDNQEGGVCQTRAMKILMKVGQD
B8: LN3D3 Fab (Fab, V domains shown)
VH: EVKLEESGPELVKPGASVKMSCKASGYTFTNYVMHWVKQKPGQGLEWIGYVNPYNDGTQYNEKFRDKATLTSDKSSSTVYMELNSLTSEDSAVYYCTRGDYPYWVFEVWGAGTTVTVSS
VL: EIQMTQSPATLSVTPGDSVSLSCRASQSISNNLHWYQQKSHESPRLLIKYASQSISGIPSRFSGSGSGTDFTLSINNLETEDFGMYFCQHSDSWPFTFGSGTKLEIK
B9: LN3D3 mAb (IgG) (antibody, V domains shown)
VH: B8 VH
VL: B8 VL

How the values were obtained:
[1] = target: T2, NiVM G head domain (residues 176-602) (Nipah virus Malaysia (NiVM), UniProt Q9IH62); assay: BLI
[2] = target: NiVM G ectodomain (residues 96-602) (Nipah virus Malaysia (NP_112027), UniProt Q9IH62); assay: ELISA
[3] = target: MojV G head domain (residues 176-625) (Mòjiāng virus (YP_009094095), UniProt W8TIR7); assay: ELISA
[4] = target: LayV G head domain (residues 176-625) (Langya virus (UUV47206), UniProt A0AAX3C924); assay: ELISA
[5] = target: T2, NiVM G head domain (residues 176-602); assay: cryo-EM structure
[6] = target: deglycosylated NiVM G head domain without the His-tag (for crystallization) (Nipah virus Malaysia (NP_112027), UniProt Q9IH62); assay: crystal structure
[7] = target: HeV G head domain (residues 176-605) (Hendra virus (NP_047112, isolate …, UniProt O89343)); assay: ELISA
Chain of HeV G head domain (residues 176-605) (Hendra virus (O89343 176-604): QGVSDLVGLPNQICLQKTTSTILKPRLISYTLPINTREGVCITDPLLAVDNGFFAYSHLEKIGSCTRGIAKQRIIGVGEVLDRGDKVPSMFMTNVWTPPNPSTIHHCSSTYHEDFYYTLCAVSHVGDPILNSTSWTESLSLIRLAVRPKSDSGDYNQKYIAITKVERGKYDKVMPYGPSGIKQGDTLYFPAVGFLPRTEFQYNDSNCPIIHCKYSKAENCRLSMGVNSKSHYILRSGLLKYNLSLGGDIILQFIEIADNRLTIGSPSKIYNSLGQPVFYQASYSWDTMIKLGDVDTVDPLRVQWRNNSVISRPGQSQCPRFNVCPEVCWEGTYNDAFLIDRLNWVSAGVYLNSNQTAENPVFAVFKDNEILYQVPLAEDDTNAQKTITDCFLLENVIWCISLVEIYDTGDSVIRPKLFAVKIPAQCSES

[8] = target: T1, NiVM G head domain (residues 176-602); assay: BLI

Binder | binding result [1] | binding result [2] | binding result [3] | binding result [4] | binding result [5] | further results
B1 | binds | binds | no binding (tested: 1 μg/mL) | no binding (tested: 1 μg/mL) | – | –
B2 | – | – | – | – | binds | –
B3 | – | – | – | – | – | binding result [6]: binds
B4 | binds | binds | no binding (tested: 1 μg/mL) | no binding (tested: 1 μg/mL) | – | binding result [7]: binds
B5 | binds | binds | no binding (tested: 1 μg/mL) | no binding (tested: 1 μg/mL) | – | –
B6 | – | – | – | – | binds | –
B7 | – | – | – | – | – | binding result [8]: binds
B8 | – | – | – | – | binds | –
B9 | binds | binds | no binding (tested: 1 μg/mL) | no binding (tested: 1 μg/mL) | – | –
